Source: patent US20060183119A1, “Method for determining predisposition to a physiological reaction in a patient” (UNIVERSITE LAVAL, priority 2002, published 2006)
Numbering of substitutions follows the chain as printed. Names may count otherwise.

Key:
human UGT1A9*3 = molecular target: T1, human UGT1A9*3 (Homo sapiens, UniProt O60656, M33T); experiment: Glucuronidation by microsomes of HEK-293 cells stably expressing UGT1A9*3
T1 sequence (O60656 26-530 M33T): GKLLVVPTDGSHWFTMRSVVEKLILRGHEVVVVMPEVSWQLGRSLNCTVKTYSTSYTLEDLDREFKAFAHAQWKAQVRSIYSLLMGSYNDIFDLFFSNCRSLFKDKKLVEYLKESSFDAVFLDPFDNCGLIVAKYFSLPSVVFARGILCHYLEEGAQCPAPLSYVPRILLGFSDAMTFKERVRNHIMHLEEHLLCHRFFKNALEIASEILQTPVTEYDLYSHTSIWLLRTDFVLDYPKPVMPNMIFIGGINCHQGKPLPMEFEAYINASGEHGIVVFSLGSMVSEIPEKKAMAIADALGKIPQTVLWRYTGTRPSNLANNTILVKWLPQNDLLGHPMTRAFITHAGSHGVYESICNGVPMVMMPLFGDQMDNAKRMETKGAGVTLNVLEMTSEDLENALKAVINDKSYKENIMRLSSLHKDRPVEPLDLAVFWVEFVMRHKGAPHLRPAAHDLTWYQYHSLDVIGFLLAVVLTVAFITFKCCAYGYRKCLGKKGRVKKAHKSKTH
Experimental: (§1) Microsomal fractions from HEK-293 cells stably expressing human UGT1A9*1, UGT1A9*2 and UGT1A9*3 were used in enzymatic assays. Reactions (100 μl volume) contained 50 mM Tris-HCl, pH 7.3, 10 mM MgCl2, 100 μg/mL phosphatidylcholine, 1 mM UDP-glucuronic acid, 40 to 60 μg of membrane protein. […] Human liver microsome were incubated in the same condition for control. Reaction was stopped by the addition of 200 μL MeOH+1% HCl 2N, followed by centrifugation at 14000 rpm for 10 minutes. Supernatant was filtered through a 0.22 μm filter and 100 μL of water was added. For SN-38 and SN-38-glucuronide detection, 10 μL samples were injected on a liquid chromatographic system coupled to a fluorescence detector. Time-course experiments were realized to determine the linearity of the glucuronidation reaction.
(§2) A liquid chromatographic method was developed to quantify SN-38 glucuronidation of UGT cell line-derived microsomes and human liver microsomes. Samples were analyzed using high performance liquid chromatography (Alliance 2695, Waters, Milford, Mass.). […] At a constant flow rate (0.7 ml/min), a linear gradient from 20 to 65% B was run over 3 min, held 0.8 min and a second gradient until 95% of B was run over 2 min and then re-equilibrated to 20% B over 2 min. The effluent from the HPLC system (Alliance 2695) was connected directly to a fluorescence detector (Waters, Milford, Mass.) using an excitation wavelength of […] and an emission of 460 nm. […] Determination of the glucuronidation rates obtained with other substrates was performed as currently known in the art.
(§3) Microsomal fractions from HEK293 (40 to 60 μg) were added to a reaction mixture (100 μL) containing 50 mM Tris-HCl, pH 7.3, 10 mM MgCl2, 100 μg/mL phosphatidylcholine and 2 mM UDP-glucuronic acid. […] Commercially available human liver microsomes (Human Cell Culture Center Inc., Laurel, Md.) were incubated in the same conditions for all experiments. Time-course experiments were performed to determine the linearity of the glucuronidation reaction. For the determination of Vmax and Km. HEK293 cells stably expressing UGT1A9 enzymes were incubated in the presence of various concentrations of SN-38 ranging from 0.1 to 200 μM and incubated for 30 min as described above whereas UGT1A7 membranes preparations were incubated for 3 hours. […] Reactions with SN-38 were stopped by the addition of 200 μL MeOH+1% HCl 2N, followed by centrifugation at 14000×g for 10 minutes. The supernatants were filtered through a 0.22 μm membrane and 100 μL of water was added to the filtrate. For the detection of SN-38 and its glucuronide (SN-38G), 10 μL samples were injected in a liquid chromatographic system (HPLC) coupled to fluorescence detector as described below.
(§4) A HPLC method was developed to quantify the rates of SN-38 glucuronidation from the various microsomal fractions under study. The HPLC system used was an Alliance 2695 (Waters, Milford, Mass.) equipped with a 50×3.2 mm Colombus C18 column (Phenomenex, Torrance, Calif.). […] Then a second gradient ranging from 65% to 95% solvent B was generated during the following 2 min. Finally, the column was re-equilibrated to 20% solvent B for 2 min. The column was connected to a fluorescence detector model 474 (Waters, Milford, Mass.) and the molecules were excited at a wavelength of 370 nm and an emission of 425 nm.

human UGT1A9*2 = molecular target: T2, human UGT1A9*2 (Homo sapiens, UniProt O60656, C3Y); experiment: Glucuronidation by microsomes of HEK-293 cells stably expressing UGT1A9*2; conditions: 5 μM and 200 μM of flavopiridol
T2 sequence (O60656 26-530): T1 sequence (O60656 26-530 M33T) with T8M
Experimental: as §1, §2, §3, §4

[1] = tested on: COc1c(C)c2c(c(O)c1C/C=C(\C)CCC(=O)O)C(=O)OC2; experiment: cells, lysate or membranes named; conditions: other: MPA glucuronidation; pH 7.3; 37.0 °C
[2] = substrate: COc1c(C)c2c(c(O)c1C/C=C(\C)CCC(=O)O)C(=O)OC2; experiment: cells, lysate or membranes named; conditions: other: MPA glucuronidation; pH 7.3; 37.0 °C; remark: listed apart in the source

## CN1CC[C@H](c2c(O)cc(O)c3c(=O)cc(-c4ccccc4Cl)oc23)[C@H](O)C1 [Flavopiridol, flavopiridol]
Human UGT1A9*3; 5 μM and 200 μM of flavopiridol
  formation of flavopiridol-G compared to the UGT1A9*1 allele: not statistically different
Human UGT1A9*2
  formation of flavopiridol-G compared to the UGT1A9*1 allele: not statistically different

## COc1c(C)c2c(c(O)c1C/C=C(\C)CCC(=O)O)C(=O)OC2 [MPA, mycophenolic acid]
Human UGT1A9*3; versus UGT1A9*1
  effect of codon 33 variation on affinity of the protein for the substrate (in words): dramatically reduced

## human UGT1A9*2 (Homo sapiens; C3Y)
[1]
  Km: 303 µM
  Vmax: 0.0084 µmol/min/mg

B1: human UGT1A9*1 (Homo sapiens) (protein)
chain: T1 sequence (O60656 26-530 M33T) with T8M
[2]
  Km: 495 µM
  Vmax: 0.00941 µmol/min/mg

B2: human UGT1A9*3 (Homo sapiens; M33T) (protein)
chain: T1 sequence (O60656 26-530 M33T)
[2]
  Km: 3225 µM
  Vmax: 0.0141 µmol/min/mg
